# Laboratory results: the DeepSol protein solubility set
# Test: soluble on expression in E. coli; label from the status in PepcDB or PDB records
row,Sequence,soluble on expression in E. coli
1,MCGRFVLFTTDESLLGHPALRIFHSIHAPKGMPPARYNIAPTTIIPILRVGTTPTEAVIEPARWGLIPAWKREVTLPPLFNARAETVTTKPSFRQAFSTQRCAIPMDGYYEWHNKKPYWITTGAPTWVAGLWDSGAGMLSATMITTDSVAPLDWLHHRMPRFLNNDELAVWLRGSADEASGLLTPGDASAFHTSLADPSVGNIRNDYPELIDAPTDLFSLLEHHHHHH,soluble
2,MAHHHHHHMHNFAKIFRSNFIDINAANKFEIFLKTILRIYKTPARTHLLAHAADISAIYAVRQIYNYMKNDEEGRTVLKEKPLLIRQDIQFNELKKLPKNTLGYKYMKFLETYKLHAHDREVSHFFTDLNYSYILTRYRQIHDIGHVVYNLNISIESEAALKLIELVQTKLPITLLAILVAPFMTPIYRFQYIFKDSLPSNFLSPNFDFTYTDAYNYVDELSIKQYEYNLTDYFHVEKRNDRNFYTKMYQHYFDNINNSSAVRGSIIYGFENKSSNDIIYDQPNREYIFLKNLKKKYLLFQYKPRKNLLRELYPWAYMAGVSTTKPLHSIHIEKWLDKDIDLFRRTYNISPLPDHLNLMAGIN,not soluble
3,MEPHSLRYNLMVLSQDESVQSGFLAEGHLDGQPFLRYDRQKRRAKPQGQWAEDVLGAETWDTETEDLTENGQDLRRTLTHIKDQKGGLHSLQEIRVCEIHEDSSTRGSRHFYYNGELFLSQNLETQESTVPQSSRAQTLAMNVTNFWKEDAMKTKTHYRAMQADCLQKLQRYLKSGVAIRRTVPPMVNVTCSEVSEGNITVTCRASSFYPRNITLTWRQDGVSLSHNTQQWGDVLPDGNGTYQTWVATRIRQGEEQRFTCYMEHSGNHGTHPVPSGKVLVLQSQRTDFPYVSAAMPCFVIIIILCVPCCKKKTSAAEGP,soluble
4,MGSSHHHHHHSQDPTVPAQLQFSAKTLDGHDFHGESLLGKPAVLWFWAPWCPTCQGEAPVVGQVAASHPEVTFVGVAGLDQVPAMQEFVNKYPVKTFTQLADTDGSVWANFGVTQQPAYAFVDPHGNVDVVRGRMSQDELTRRVTALTSR,soluble
5,MALVPVYCLCRQPYNVNHFMIECGLCQDWFHGSCVGIEEENAVDIDIYHCPDCEAVFGPSIMKNWH,soluble
6,MNESRITRNNEAVYKPEELDILRLGLDTDLYPNVDWMDMLLKDGAWSNRINLNMSGGGTTARYFVSASYVKEDGMYNTDESLKDDYNTNAAYHRWNYRLNTDIDITKTTLLKVGVAGFLSKRNSPGLGDGDVWGELFGYNPIKTPVMYSNGYIPAIGSGNKTNPWVAATQTGFNENWTNNIETNISLEQNFDFITKGLKFVGRFGYDSNNQNTIRRLKWPEQWLAERARDPETGELRWKKISGSQNMKQESSSSGNRREFLDMMLNWDRSFGAHHPSATIKYTQDSYIQTQNLGEDLKTGINKRNQDLAGRVAYNWNYRYFIDFNFGYNGSENFAKGDRFGFFPAFSLAWNIAEEPFIKKHLKWMNMFKVRFSYGKVGNDNVGTRFPYLYTIADRYKNGDNEIIYGGYDWAQYPSSYSFGGLGFADVASNGITWEVAEKNDLGIDLALFNDKFTATIDYFDEKRTGIYMVRNYLPQIVGLNGHNPAANVGAVSSKGFDGHFSYKQRINDVNLTVRGNITYSKNEVLERDEENNVYAYQMQRGYRVDQCKGLIAEGLFKDYDDIRNSPTQSWGKVQPGDIKYRDVNGDGVINDGDQVAIGATSRPNLIYGLGASASWKGLDVNVHFQGAGKSTFFTYGKCVWAFTEGEWGNIFKGMLDNRWVDADTAETLGIPANENPNASYPRLSYQGDNASNNNYRNSTFWLKNGRYLRLKTIDVGYTLPKSIVNKMHFNNIRIFLVGTNLLTWSSFKTWDPEMGDPRGESYPLTKSITMGISVNL,not soluble
7,MAQMTMVQAITDALRIELKNDPNVLIFGEDVGVNGGVFRATEGLQAEFGEDRVFDTPLAESGIGGLAIGLALQGFRPVPEIQFFGFVYEVMDSICGQMARIRYRTGGRYHMPITIRSPFGGGVHTPELHSDSLEGLVAQQPGLKVVIPSTPYDAKGLLISAIRDNDPVIFLEHLKLYRSFRQEVPEGEYTIPIGKADIKREGKDITIIAYGAMVHESLKAAAELEKEGISAEVVDLRTVQPLDIETIIGSVEKTGRAIVVQEAQRQAGIAANVVAEINERAILSLEAPVLRVAAPDTVYPFAQAESVWLPNFKDVIETAKKVMNF,soluble
8,MGSDKIHHHHHHMLELGQTPNAAPDAAPADLIKDTTDATFMADVVDASQTTPVIVDFWAPWCGPCKTLGPQLEAAVTAAKGKVRMVKVNVDENQQIAAQLRVQSIPMVYAFVDGQPIDGFQGAVPESQIKDFVTKLAAMSKEDGGLAEALEAAEEMLSMGEHDDAAQTFAAILGEEPENAAAMGGLARAHLAMGQVDEAEQLLSTAPDAIFNAPELEAVRAQIELARQAESAGPLAELQAAVDANPDDHAARFELAQALHANGDVEQAVDQLLELFRRDREWEDAKAKTQLFTIFDALPPQDPIALTGRRRLSSMIFA,not soluble
9,MITISNEDNMILMSRYPDKYFDLAIVDPPYGILNKTKRGGDYKFNMNEYSQWDIKPDQTYFNELFRVSKNQIIWGGNYFGELWLRSEYNKGFIIWDKNQPETLNNFSMAEMAWSSFDRPSKIFRFSVRKNRNKTHPTQKPVELYQWLLKMYAKQGDKILDTHLGSGTLAIACCIAQFDLTACEINSDYYQQSIEKIKNNLPEARISFGHPGYCIIE,not soluble
10,MGSDKIHHHHHHMRGEQSPNGLHYAREHLSCKNYMTDIDTGFKYIKFDTEKCIEEEYTHKNYLLFFLEGDFSVYCNQFCNRTFHSNEMVVLPKSSMIKISATDKSQMLAMAFDIPQSNCDKLLFQGLSSICENIDYDFSPIPMRYPLMPFLETVVHCLRNEMNCTYLHNVIEREFFFLLRGFYNKKEIATLFHPIIGRQLEFRDFVMQNYSKVNNLDELITLSNIGRTSFFIKFKEEFGITAKQWMMKQLKKRILGKVIEPGICVKQLMEVCNFESQAQLYRYFKQHFRCTPKQLIDRYQAKTDNL,not soluble
11,MKIEIKVQIKDGKNSPNLKPGGYIVSASKSFSIDYSKAVAITRNPEIYKNIGIPYIWISKVEGENAISPTNLPKLLHTMISLSKKHPGVTFIIDSVEYLALENGFESTFKFLISAKDHLMLNNSSLVLIIEDKAFKPNELALLKKEFKEISLEHHHHHH,soluble
12,ARRLYVGNIPFGITEEAMMDFFNAQMRLGGLTQAPGNPVLAVQINQDKNFAFLEFRSVDETTQAMAFDGIIFQGQSLKIRRPHDYQPLPG,soluble
13,MADEERLKEFKEANKIVFDPNTRQVWENQNRDGTKPATTFQSEEDIKRAAPESEKDTSATSGIVPTLQNIVATVTLGCRLDLKTVALHARNAEYNPKRFAAVIMRIREPKTTALIFASGKMVVTGAKSEDDSKLASRKYARIIQKIGFAAKFTDFKIQNIVGSCDVKFPIRLEGLAFSHGTFSSYEPELFPGLIYRMVKPKIVLLIFVSGKIVLTGAKQREEIYQAFEAIYPVLSEFRKM,soluble
14,AEAKSKLTVALGKDIAGTPVVGDLAKMPHLLVAGMTGSGKSVGVNGMIMSMLFKATPDEVRFIMIDPKMLELSIYDGIPHLLCPVVTDMREAGQALNWCVAEMEKRYRLLSHAGVRNLEGFNQKVEAAKAAGKPLLNPFSLNPDEPEPLEKLPLIVVVIDELADLMMTERKAVEQQIARLAQKARAAGIHMIVATQRP,not soluble
15,MEENKQRVKSMINILQLVAPGTPLREGIDNVLRAQTGGLIVLGYNEQIKSIVDGGFHINCAFSPASLYELAKMDGALILNETGSKILIANAQLVPDSSIDSIETGMRHRTAERVAKQTGSLVVAISQRRNVITLYQGNLRYTLKDIGVILTKANQAIQTLEKYKAVWNDGITNLGILEFEEVVTMSEVVHVLHSVEMVLRIKNEILSYIHELGTEGRLIRLQLTELLADLEAEAALLIKDYHQEKTQDHHQILKKLQDLANTQLLEDSDLVKLLGYPGQTSLEESVTPRGYRITSKISRVPPLIIENLINRFKTLQGVCRATINELDDVEGIGEVRAKKIREGLKRIQEHLYMSRHN,not soluble
16,MGSDKIHHHHHHMSAMLTVEGLGKSYRVWGSEWLRAASWFGLKVKPREEHWVLRNVGFSVTAGESIGIMGRNGAGKSTLLKLITGTSQPTEGRIVRRGRIAAILELGMGFNPDLSGRENARHSAGLMGYTLDQIEAVLPEIQEFAEIGDYFDEPVRTYSSGMQVRVAFAVATAFRPDVLIVDEALSVGDVYFQAKCFKRILSFKEKGMTLILVSHSVGDVVKHCDRAILIKDGGVYADGPSREVSNLYLDELFGKKPASLQAEAKDTPKDLRAGTEDLFHTRPYYNAGEHRWGQGGARILDYVVVSDGQEFPARVESGSRTAFYVKIAFDQDFDSVVPGILVKTLEGLFLYGTNSFLSSEGRTGIAAKAGDVIVCKFTMPLDLNEANYLISLGISSGDPLVELTPLDRRYDAIVLNVARGMQFWGMMDLKADFEIVEALS,not soluble
17,NEYLNNVKSKYEVQKQRIQIQNDTRYMNEIEAHYNELRRFRHDYQNMLISIDEYLKTDDLEGLQEYYQKNLAPVSNRVLKEKYNLEDLSRVKVKSIKSILFSKLSYAQSQEIEVHFDLKEPLIDITVNELDLDIALGIMLDNAIEASVGHADGEIMSAIFIEKNSTVFLIQNNVFEQLPPLWKLKEAGYSTKGKNRGIGLNSLSKIVNRNENMILETRVLGAVFLQRLTVKRVSQND,not soluble
18,MSLNILILHRVRYVDVLYHQSIDHELHNVYYIGIEENLNEIPADLRCTKIVRPGVDAVHKEVLEQIENLDVCFDHVVSINEFELIEAALIREKLNIAGPKVADVEKVRNKIVMKHCVGAVNIRIPQYMSLSDFMNSERLAIPPSSQVILKPLDGASSVDVVKFDSQKVLEQALIDRTTGIVALDKETPERIENFEVEEFVSGPVLHIDGMIRNGQIEMIVVSQYINTLLDFANGYPAGSVQLETTEEMKTWALQILNAVDISLGAFHLEAIQTDTGPVFLEIAHRIGGARIAETLTLQTGIHPSILELGLLLDPDFKFELNYDTGYKYAWFIVPGHQLPGNYGLVSGHEFLYGKEEVVMLNQLTMQQPLVKAVTYKESEIPLAGLLKAKSAKELTDLIDRLFGQLQLISVDTPLPYSECMPQKKKHVLVIGNIRQPHKTLEAQGYAISWMYKKVPNFTHTTEDHNRCERILMYSNESAIQLISLARSIDQLQKIDSVVSFHDGAQLDALTIANALELPFSLSMGAIVNTRDKQLSRRILREKNLTEVQSAIAENEQDLHDFFKIYPQVNKVIVKPVAGTGSENVRSLESKELETANLDNVYPVLVEQFVEGREFSVEAFMQEGKCHIFAITEKFKDAQSFIETGHLVPARLSSDEHEKIAAFIAKVLPALGVVSGITHSEIMLGEKIELIETHTRVGGDRIFDLVQMTTGIDMYRLQALQSLGLPIGEDELTPKLNGKHACIKFKLNDHPGKKVIRVNGEEEIKNWSGVEDVSITHQAGEVLPQIVNSFDRSASVLVLCDSSEQALSIAEEAIQKLEFVVGEGHHHHHH,soluble
19,MAGNFWQSSHYLQWILDKQDLLKERQKDLKFLSEEEYWKLQIFFTNVIQALGEHLKLRQQVIATATVYFKRFYARYSLKSIDPVLMAPTCVFLASKVEEFGVVSNTRLIAAATSVLKTRFSYAFPKEFPYRMNHILECEFYLLELMDCCLIVYHPYRPLLQYVQDMGQEDMLLPLAWRIVNDTYRTDLCLLYPPFMIALACLHVACVVQQKDARQWFAELSVDMEKILEIIRVILKLYEQWKNFDERKEMATILSKMPKPKPPPNSEGEQGPNGSQNSSYSQS,soluble
